Key:
[1] = target: T1, N-terminally polyhistidine tagged human MARCO ECD (147-520), recombinant (human, UniProt Q9UEW3 147-520); test: SPR, single cycle (sc)
T1 construct: also called PI-RG-3000; recombinant human MARCO; not shown: N-terminal polyhistidine tag
T1 sequence: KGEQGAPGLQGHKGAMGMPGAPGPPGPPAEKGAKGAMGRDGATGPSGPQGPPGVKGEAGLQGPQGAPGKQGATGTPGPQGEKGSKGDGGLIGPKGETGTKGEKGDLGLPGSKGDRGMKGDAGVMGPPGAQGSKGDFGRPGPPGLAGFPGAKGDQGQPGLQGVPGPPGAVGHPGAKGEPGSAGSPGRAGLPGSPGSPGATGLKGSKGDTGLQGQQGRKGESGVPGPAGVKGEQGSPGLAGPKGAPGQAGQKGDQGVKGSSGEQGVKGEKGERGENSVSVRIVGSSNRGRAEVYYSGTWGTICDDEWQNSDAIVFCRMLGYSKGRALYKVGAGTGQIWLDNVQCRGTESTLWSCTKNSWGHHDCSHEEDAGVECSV

[2] = target: T2, recombinant cynomolgus MARCO protein (cynomolgus, UniProt A0A2K5X0Z2 65-519); test: SPR, single cycle (sc)
T2 construct: Construct not described; also called cyno MARCO; cynoMARCO
T2 sequence: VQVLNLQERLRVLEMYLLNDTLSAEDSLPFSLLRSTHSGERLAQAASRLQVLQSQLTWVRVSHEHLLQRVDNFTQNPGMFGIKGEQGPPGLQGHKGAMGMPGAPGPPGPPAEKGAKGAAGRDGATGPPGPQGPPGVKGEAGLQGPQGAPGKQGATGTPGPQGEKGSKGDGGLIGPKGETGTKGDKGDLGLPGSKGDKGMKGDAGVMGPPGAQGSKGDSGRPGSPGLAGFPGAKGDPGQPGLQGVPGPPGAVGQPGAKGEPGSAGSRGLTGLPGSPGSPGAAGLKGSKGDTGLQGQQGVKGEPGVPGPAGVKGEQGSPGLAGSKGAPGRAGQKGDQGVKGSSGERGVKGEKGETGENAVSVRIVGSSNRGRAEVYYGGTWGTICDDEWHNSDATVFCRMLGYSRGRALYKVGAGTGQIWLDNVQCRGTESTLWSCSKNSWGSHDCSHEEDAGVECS

[3] = target: T3, Human Macrophage Receptor with Collagenous Structure (MARCO), full length, on cells (human, UniProt Q9UEW3 1-520); test: flow cytometry, 293T (HuMARCO)
T3 construct: the cell type is named under assay; also called huMARCO; HuMARCO
T3 sequence: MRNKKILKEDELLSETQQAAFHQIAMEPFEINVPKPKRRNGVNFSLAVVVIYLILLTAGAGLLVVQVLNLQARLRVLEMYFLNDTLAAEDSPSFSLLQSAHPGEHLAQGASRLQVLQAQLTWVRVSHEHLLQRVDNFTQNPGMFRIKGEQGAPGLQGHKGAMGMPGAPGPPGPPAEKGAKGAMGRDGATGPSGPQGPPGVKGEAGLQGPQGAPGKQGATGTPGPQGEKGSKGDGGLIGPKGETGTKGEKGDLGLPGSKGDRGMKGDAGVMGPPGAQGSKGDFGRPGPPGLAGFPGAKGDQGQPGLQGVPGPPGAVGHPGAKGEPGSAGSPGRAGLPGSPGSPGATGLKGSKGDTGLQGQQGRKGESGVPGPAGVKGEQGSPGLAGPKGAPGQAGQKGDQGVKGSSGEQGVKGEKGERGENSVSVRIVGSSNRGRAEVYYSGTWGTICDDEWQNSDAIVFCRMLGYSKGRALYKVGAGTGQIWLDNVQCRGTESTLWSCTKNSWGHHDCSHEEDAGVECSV
Experimental: Supernatants were removed and cell pellets were resuspended in Ca²⁺+ and Mg²⁺+ Dulbecco's phosphate-buffered saline (D-PBS) at 1×10⁶ cells/ml. 100,000 cells/well were plated onto U-bottom 96-well plates for staining and all centrifugation steps were performed at 1500 rpm at 4° C. for 5 min and samples were kept protected from light throughout the protocol. Cells were pelleted and resuspended in 100 μl of Zombie NIR viability dye (BioLegend) prepared by diluting Zombie NIR dimethyl sulfoxide (DMSO) stock 1000-fold in D-PBS. […] Flow cytometry data were analyzed using FlowJo software (version 10.6.1) and data were processed and further analyzed in Microsoft Excel and GraphPad Prism software (version 8). Half-maximal effective concentrations (EC₅₀) were calculated based on geometric mean fluorescence intensities (gMFI). In case when the plates were not able to be analyzed on the cytometer, cells were pelleted after the washes and fixed in 100 μl of 2% paraformaldehyde (PFA), prepared by diluting the 16% (w/v) stock (Thermo Fisher) in DPBS, for 15 min at RT. […]

Binder | Kd [1] [nM] | Kd [2] [nM] | EC50 [3] [nM]
PI-3015-AB (antibody, human IgG1, kappa) heavy: not shown light: DIQMTQSPSSLSASVGDRVTITCRASEGISNDLAWYQQKPGKAPKLLIYAASRLQSGVPSRFSGSGSGTDYTLTISSMQPEDFATYYCQQSYKYPLTFGQGTKLEIKRTVAAPSVFIFPPSDEQLKSGTASVVCLLNNFYPREAKVQWKVDNALQSGNSQESVTEQDSKDSTYSLSSTLTLSKADYEKHKVYACEVTHQGLSSPVTKSFNRGEC | 0.911 | 0.611 | –
PI-HX-3031 (antibody, Parental rat hybridoma, rat IgG2a) heavy: QVQLKESGPGLVQPSQTLSLTCTVSGFSLTSYHVSWVRQPPGKGLEWMGAIWTGGSIAYNSLLKSRLSISRDTSKSQVFLKMNSLQTEDTATYYCARDLSDYYSSYTSFDYWGQGVMVTVSTAETTAPSVYPLAPGTALKSNSMVTLGCLVKGYFPEPVTVTWNSGALSSGVHTFPAVLQSGLYTLTSSVTVPSSTWSSQAVTCNVAHPASSTKVDKKIVPRECNPCGCTGSEVSSVFIFPPKTKDVLTITLTPKVTCVVVDISQNDPEVRFSWFIDDVEVHTAQTHAPEKQSNSTLRSVSELPIVHRDWLNGKTFKCKVNSGAFPAPIEKSISKPEGTPRGPQVYTMAPPKEEMTQSQVSITCMVKGFYPPDIYTEWKMNGQPQENYKNTPPTMDTDGSYFLYSKLNVKKETWQQGNTFTCSVLHEGLHNHHTEKSLSHSP light: DIQMTQSPASLSTSLGETVSIECLASEGISNDLAWYQQKSGKSPQLLIYAASRLQDGVPSRFSGSGSGTRYSLKISGMQPEDEADYFCQQSYKYPLTFGSGTKLEIKRADAAPTVSIFPPSTEQLATGGASVVCLMNNFYPRDISVKWKIDGTERRDGVLDSVTDQDSKDSTYSMSSTLSLTKADYESHNLYTCEVVHKTSSSPVVKSFNRNEC | – | – | 0.56
PI-3010-AB (antibody, human IgG1, kappa) heavy: not shown light: DIQMTQSPASLSTSLGETVSIECLASEGISNDLAWYQQKSGKSPQLLIYAASRLQDGVPSRFSGSGSGTRYSLKISGMQPEDEADYFCQQSYKYPLTFGSGTKLEIKRTVAAPSVFIFPPSDEQLKSGTASVVCLLNNFYPREAKVQWKVDNALQSGNSQESVTEQDSKDSTYSLSSTLTLSKADYEKHKVYACEVTHQGLSSPVTKSFNRGEC | 0.43 | 0.259 | –
PI-HX-3061 (antibody, rat IgG2a, Parental rat hybridoma, rat IgG2a; cross reactive with human and mouse MARCO) heavy: EVQLVESGGGLVQPGSSLKLSCVASKFTFSNYGMNWIRQAPKKGLEWIALIYYNSNNKYYADSVKGRFTISRDNSKNTLYLEMNSLRSEDTAMYYCAKSLTGGSDYFDSWGQGVMVTVSSAETTAPSVYPLAPGTALKSNSMVTLGCLVKGYFPEPVTVTWNSGALSSGVHTFPAVLQSGLYTLTSSVTVPSSTWPSQTVTCNVAHPASSTKVDKKIVPRNCGGDCKPCICTGSEVSSVFIFPPKPKDVLTITLTPKVTCVVVDISQDDPEVHFSWFVDDVEVHTAQTRPPEEQFNSTFRSVSELPILHQDWLNGRTFRCKVTSAAFPSPIEKTISKPEGRTQVPHVYTMSPTKEEMTQNEVSITCMVKGFYPPDIYVEWQMNGQPQENYKNTPPTMDTDGSYFLYSKLNVKKEKWQQGNTFTCSVLHEGLHNHHTEKSLSHSP light: DVQMTQSPSYLAASPGESVSISCKASKSIGTFLAWYQEKPEKTNKLLIYSGSTLQSGTPSRFSGSGSGTDFTLTIRNLEPEDFAVYYCQQHDEYPFTFGSGTKLEIKRADAAPTVSIFPPSTEQLATGGASVVCLMNNFYPRDISVKWKIDGTERRDGVLDSVTDQDSKDSTYSMSSTLSLTKADYESHNLYTCEVVHKTSSSPVVKSFNRNEC | – | – | 0.49

Reference: US20220153832A1 (PIONYR IMMUNOTHERAPEUTICS, published 2022)
